This is an account of results in PMC10837151.

This assay addresses asymmetric nucleosome with H2B-Ser6 tri-ADP-ribose on one side only (Nuc-H2B-ADPr3) (Xenopus laevis | not stated) (UniProt P02281). In words: cryo-EM structure; modified nucleosomes at 1 µM, ALC1 at 6 µM, ADP-BeF3 at 1 mM, incubated 60 minutes on ice before vitrification.

Usually stoichiometry N stands for a count of units in the complex or per binding partner.

ALC1 (Amplified in Liver Cancer 1), wild-type construct (16-879), sequence (Q86WJ1 16-879): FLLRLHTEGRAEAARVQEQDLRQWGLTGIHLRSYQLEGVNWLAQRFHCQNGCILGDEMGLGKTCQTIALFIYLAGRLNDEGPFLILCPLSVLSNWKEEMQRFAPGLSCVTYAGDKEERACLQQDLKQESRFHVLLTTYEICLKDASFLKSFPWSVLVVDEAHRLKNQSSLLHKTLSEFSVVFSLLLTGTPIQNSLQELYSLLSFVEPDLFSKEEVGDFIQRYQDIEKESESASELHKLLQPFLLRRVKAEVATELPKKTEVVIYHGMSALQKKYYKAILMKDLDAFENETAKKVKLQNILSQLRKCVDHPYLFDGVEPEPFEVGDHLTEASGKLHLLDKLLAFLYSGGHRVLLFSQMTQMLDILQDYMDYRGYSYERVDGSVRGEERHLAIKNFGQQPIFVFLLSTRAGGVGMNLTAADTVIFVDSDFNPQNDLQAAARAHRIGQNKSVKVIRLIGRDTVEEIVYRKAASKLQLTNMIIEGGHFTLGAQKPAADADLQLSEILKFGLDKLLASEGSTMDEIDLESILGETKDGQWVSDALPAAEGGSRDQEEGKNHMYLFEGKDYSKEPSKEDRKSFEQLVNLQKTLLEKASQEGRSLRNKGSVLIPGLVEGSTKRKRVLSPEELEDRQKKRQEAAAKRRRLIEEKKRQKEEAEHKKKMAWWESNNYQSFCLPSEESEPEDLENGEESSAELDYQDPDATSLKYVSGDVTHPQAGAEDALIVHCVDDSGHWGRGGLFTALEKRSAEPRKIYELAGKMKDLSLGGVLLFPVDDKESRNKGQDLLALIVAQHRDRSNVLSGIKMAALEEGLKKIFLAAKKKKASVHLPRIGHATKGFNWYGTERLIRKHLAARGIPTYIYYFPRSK

“ALC1 (Amplified in Liver Cancer 1), wild-type construct (16-879) (from UniProt Q86WJ1 16-879) (enzyme)” had a stoichiometry N of 1.
